Experimental data taken from US20250289893A1 (OXFORD UNIVERSITY INNOVATION, published 2025).

Columns and labels:
[1] = biological target: T1, human CD1a expressed on cells (human, UniProt P06126 17-327; P61769 21-119); assay: flow cytometry, HEK-293 cells, 10 µg/ml antibody
T1 construct: also called HEK - CD1a; C1R - CD1a
Experimental: (§1) Binding to proteins expressed on HEK, C1R and MOLT4 cell lines was assessed. […] The C1R-CD1a, C1R-empty vector and MOLT4 cell lines were washed in 1×PBS on the day required. All cell lines were counted and resuspended in 1×PBS and then stained for 30 minutes at 37° C. using the DiI or DiO cellular stains (Invitrogen). Cells were washed with flow cytometry buffer (1% bovine serum albumin, 2 mM EDTA and 0.1% sodium azide in PBS) before mixing 2 DiI-stained and DiO-stained populations together. The cells (20 μl/well) were then added to dilutions of antibody sample (B cell culture supernatant, TAP supernatant, clone supernatant, purified antibody solution) (20 μl/well) and incubated for 1 hour at 4° C. in a flow cytometry assay plate, before being washed with flow cytometry buffer. 10 μl/well of Alexafluor647-conjugated goat anti-species IgG Fc-specific F(ab′)2 fragment (Jackson ImmunoResearch), diluted 1:2500 in flow cytometry buffer, was added and incubated at 4° C. for 30 minutes, followed by washing with wash buffer. The fluorescence intensity was then measured on an iQue screener PLUS.
(§2) HEK-293 cells were transiently transfected with human CD1a, CD1b, CD1c or CD1d and co-transfected with human β2M.

[2] = biological target: T2, Cynomolgus monkey CD1a expressed on HEK-293 cells (Cynomolgus monkey, UniProt A0A2K5VQ68 17-326); assay: flow cytometry, HEK-293 cells, 10 µg/ml antibody
T2 sequence (A0A2K5VQ68 entry or part of it): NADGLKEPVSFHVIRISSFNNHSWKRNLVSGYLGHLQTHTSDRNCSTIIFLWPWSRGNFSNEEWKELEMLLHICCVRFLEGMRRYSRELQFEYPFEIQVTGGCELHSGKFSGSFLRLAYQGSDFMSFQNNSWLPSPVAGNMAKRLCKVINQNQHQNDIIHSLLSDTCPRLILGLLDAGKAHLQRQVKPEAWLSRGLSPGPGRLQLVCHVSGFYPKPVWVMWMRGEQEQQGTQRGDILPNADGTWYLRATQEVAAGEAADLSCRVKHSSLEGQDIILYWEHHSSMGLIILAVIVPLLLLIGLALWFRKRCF
Experimental: as §1
(§3) Binding was quantified as fold change in fluorescence intensity geomean over background assessed by flow cytometry.

[3] = biological target: T3, Cynomolgus monkey CD1a protein (Cynomolgus monkey); assay: ELISA, 0.01 µg/ml antibody
T3 chain: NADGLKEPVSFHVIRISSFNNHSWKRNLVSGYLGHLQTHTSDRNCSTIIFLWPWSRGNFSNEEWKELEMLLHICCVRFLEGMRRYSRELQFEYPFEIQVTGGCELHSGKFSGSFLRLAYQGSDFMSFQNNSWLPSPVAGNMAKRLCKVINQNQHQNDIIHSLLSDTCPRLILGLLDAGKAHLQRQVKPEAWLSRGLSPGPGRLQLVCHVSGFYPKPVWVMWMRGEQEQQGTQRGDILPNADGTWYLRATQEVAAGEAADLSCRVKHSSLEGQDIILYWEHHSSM

[4] = biological target: Chinese variant CD1a protein (human) (UniProt P06126); assay: ELISA, 0.01 µg/ml antibody
Chinese variant CD1a protein (human), sequence (P06126 18-295, stated change not applied): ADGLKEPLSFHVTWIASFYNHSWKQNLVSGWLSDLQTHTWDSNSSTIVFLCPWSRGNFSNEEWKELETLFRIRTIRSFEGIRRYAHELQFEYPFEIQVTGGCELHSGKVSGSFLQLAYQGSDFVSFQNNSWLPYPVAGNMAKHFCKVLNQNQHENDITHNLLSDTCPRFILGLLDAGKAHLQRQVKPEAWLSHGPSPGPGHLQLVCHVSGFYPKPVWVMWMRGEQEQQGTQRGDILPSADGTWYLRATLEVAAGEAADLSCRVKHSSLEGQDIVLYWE

[5] = biological target: T4, human CD1a protein (pool B) (human, UniProt P06126 18-295, limits assumed); assay: SPR (Biacore T200), antibody captured, human CD1a titrated, heterogeneous ligand model (kd 2)
T4 construct: Recombinant protein of the ELISA (coated) and the Biacore T200 titration; whole entry named; also called human CD1a pool B; full length CD1a
T4 sequence (P06126 18-295 limits assumed): as the sequence (P06126 18-295, stated change not applied) above
Experimental: (§4) The affinity of the purified antibodies to human CD1a was assessed using a Biacore T200 instrument (GE Healthcare) by capturing the antibody to an immobilized anti-species IgG F(ab′)2 followed by titration of human CD1a. Affinipure Goat anti-species IgG-F(ab′)2 fragment specific (Jackson ImmunoResearch) was immobilized on a CM5 Sensor Chip (GE Healthcare) via amine coupling chemistry to a capture level of ˜5000 response units (RUs). HBS-EP+ buffer (10 mM HEPES pH 7.4, 0.15 M NaCl, 3 mM EDTA, 0.05% Surfactant P20, GE Healthcare) was used as the running buffer with a flow rate of 10 μL/min. A 10 μL injection of test antibody at 0.5 μg/mL was used for capture by the immobilized Goat Anti-species Fab.
(§5) The surface was regenerated between cycles by injection of 2×10 μL of 40 mM HCl, interspersed by a 10 μL injection of 5 mM NaOH at flowrate of 10 μL/min. Background subtraction binding curves were analyzed using the Biacore T200 evaluation software following standard procedures. Kinetic parameters were determined from the fitting algorithm. This assay was performed at the clone supernatant and purified antibody stage.
(§6) Affinity was required to be <100 nM to be considered for progression.

[6] = biological target: T1, human CD1a expressed on cells; assay: flow cytometry, HEK-293 cells, 0.1 µg/ml antibody
Experimental: as §1, §2

[7] = biological target: T4, human CD1a protein (pool B); assay: ELISA, 0.1 µg/ml antibody
Experimental: (§7) CD1a-specific antibodies were identified by ELISA. […] 20 μl/well of peroxidase-conjugated goat anti-species IgG Fc-specific F(ab′)2 fragment (Jackson ImmunoResearch), diluted 1:5000 in block buffer was added and incubated at room temperature for 1 hour, followed by washing with wash buffer.
The antibodies were titrated through a dilution series and compared to a control rabbit IgG antibody.

[8] = biological target: Chinese variant CD1a protein (human) (UniProt P06126); assay: ELISA, 10 µg/ml antibody
[9] = biological target: T1, human CD1a expressed on cells; assay: flow cytometry, C1R cells, 1 µg/ml antibody
Experimental: as §1, §3

[10] = biological target: T1, human CD1a expressed on cells; assay: flow cytometry, C1R cells, 10 µg/ml antibody
Experimental: as §1, §3

[11] = biological target: Chinese variant CD1a protein (human) (UniProt P06126); assay: ELISA, 1 µg/ml antibody
[12] = biological target: T1, human CD1a expressed on cells; assay: flow cytometry, HEK-293 cells, 1 µg/ml antibody
Experimental: as §1, §2

[13] = biological target: T1, human CD1a expressed on cells; assay: flow cytometry, MOLT4 cells, 0.1 µg/ml antibody
Experimental: (§8) CD1a-specific antibodies were identified by flow cytometry. Binding to proteins expressed on HEK, C1R and MOLT4 cell lines was assessed. […] The C1R-CD1a, C1R-empty vector and MOLT4 cell lines were washed in 1×PBS on the day required. All cell lines were counted and resuspended in 1×PBS and then stained for 30 minutes at 37° C. using the DiI or DiO cellular stains (Invitrogen). Cells were washed with flow cytometry buffer (1% bovine serum albumin, 2 mM EDTA and 0.1% sodium azide in PBS) before mixing 2 DiI-stained and DiO-stained populations together. The cells (20 μl/well) were then added to dilutions of antibody sample (B cell culture supernatant, TAP supernatant, clone supernatant, purified antibody solution) (20 μl/well) and incubated for 1 hour at 4° C. in a flow cytometry assay plate, before being washed with flow cytometry buffer. 10 μl/well of Alexafluor647-conjugated goat anti-species IgG Fc-specific F(ab′)2 fragment (Jackson ImmunoResearch), diluted 1:2500 in flow cytometry buffer, was added and incubated at 4° C. for 30 minutes, followed by washing with wash buffer. The fluorescence intensity was then measured on an iQue screener PLUS.
as §3

[14] = biological target: T4, human CD1a protein (pool B); assay: SPR (Biacore T200), antibody captured, human CD1a titrated, heterogeneous ligand model (kd)
Experimental: as §4, §5, §6

[15] = biological target: T3, Cynomolgus monkey CD1a protein; assay: ELISA, 10 µg/ml antibody
[16] = biological target: T2, Cynomolgus monkey CD1a expressed on …; assay: flow cytometry, HEK-293 cells, 0.01 µg/ml antibody
Experimental: as §1, §3

[17] = biological target: T3, Cynomolgus monkey CD1a protein; assay: ELISA, 0.1 µg/ml antibody
[18] = biological target: T4, human CD1a protein (pool B); assay: SPR (Biacore T200), antibody captured, human CD1a titrated, heterogeneous ligand model (ka)
Experimental: as §4, §6

[19] = biological target: T1, human CD1a expressed on cells; assay: flow cytometry, C1R cells, 0.1 µg/ml antibody
Experimental: as §1, §3

[20] = biological target: T2, Cynomolgus monkey CD1a expressed on …; assay: flow cytometry, HEK-293 cells, 0.1 µg/ml antibody
Experimental: as §1, §3

[21] = biological target: T4, human CD1a protein (pool B); assay: SPR (Biacore T200), antibody captured, human CD1a titrated, heterogeneous ligand model (ka 2)
Experimental: as §4, §5, §6

[22] = biological target: chimeric CD1a pool B protein [human CD1a lipid binding domain, mouse CD1d Ig domain] (human; mouse, UniProt P06126 18-201; P11609 205-297, limits assumed); assay: ELISA, 0.1 µg/ml antibody
chimeric CD1a pool B protein [human CD1a lipid binding domain, mouse CD1d Ig domain], sequence (P06126 other isoform, or with tags, fused parts or gaps mutant limits assumed): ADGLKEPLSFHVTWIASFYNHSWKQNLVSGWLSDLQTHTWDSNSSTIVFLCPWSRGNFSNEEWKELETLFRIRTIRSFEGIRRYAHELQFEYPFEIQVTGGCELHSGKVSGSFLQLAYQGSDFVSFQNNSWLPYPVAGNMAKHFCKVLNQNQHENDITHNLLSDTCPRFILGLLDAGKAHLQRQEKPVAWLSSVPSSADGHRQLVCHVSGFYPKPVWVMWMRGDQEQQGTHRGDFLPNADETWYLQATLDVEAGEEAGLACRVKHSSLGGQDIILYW
Experimental: as §7
The antibodies were titrated through a dilution series and compared to a control rabbit IgG antibody. […] Data shown for purified antibodies.

[23] = biological target: T4, human CD1a protein (pool B); assay: SPR (Biacore T200), antibody captured, human CD1a titrated, heterogeneous ligand model (KD)
Experimental: as §4, §6

[24] = biological target: T1, human CD1a expressed on cells; assay: flow cytometry, MOLT4 cells, 1 µg/ml antibody
Experimental: as §8, §3

[25] = biological target: Chinese variant CD1a protein (human) (UniProt P06126); assay: ELISA, 0.1 µg/ml antibody
[26] = biological target: T5, human CD1c expressed on HEK-293 cells (human, UniProt P29017 18-333; P61769 21-119); assay: flow cytometry, HEK-293 cells
T5 construct: also called HEK - CD1c
Experimental: as §8

[27] = biological target: T6, human CD1d expressed on HEK-293 cells (human, UniProt P15813 20-335; P61769 21-119); assay: flow cytometry, HEK-293 cells
T6 construct: also called HEK - CD1d
Experimental: as §8

[28] = biological target: T7, human CD1b expressed on HEK-293 cells (human, UniProt P29016 18-333; P61769 21-119); assay: flow cytometry, HEK-293 cells
T7 construct: also called HEK - CD1b
Experimental: as §8

[29] = biological target: T4, human CD1a protein (pool B); assay: SPR (Biacore T200), antibody captured, human CD1a titrated, heterogeneous ligand model (KD2)
Experimental: as §4, §5, §6

[30] = biological target: T2, Cynomolgus monkey CD1a expressed on …; assay: flow cytometry, HEK-293 cells, 1 µg/ml antibody
Experimental: as §1, §3

[31] = biological target: T1, human CD1a expressed on cells; assay: flow cytometry, MOLT4 cells, 10 µg/ml antibody
Experimental: as §8, §3

[32] = biological target: T3, Cynomolgus monkey CD1a protein; assay: ELISA, 1 µg/ml antibody

B1: 16 (VR11834) (antibody, V domains shown)
VH: EVQLVESGGGLVKPGGSLKLSCAASGFTFSNYAMSWVRQTPEKRLEWVAAINSNGGSAYYPDTVKDRFTISRDNAKNTLYLQMSSLRSEDTALYYCARRFYYDYGWFAYWGQGTLVTVSS
VL: DIVLTQSPASLSASVGETVTITCRASENIDSYLAWYQQKQGKSPQLLVYAATLLADGVPSRFSGSGSGTQYSLKINSLQSEDVARYYCQHYYSSPWTFGGGTKLEIK
notes: also called OX16; antibody 16
Fluorescence Intensity Geomean (normalized to background) [1]: 10.2 fold over background
Fluorescence Intensity Geomean (normalized to background) [2]: 8.8 fold over background
Optical Density (OD) [3]: 0.46 OD
Optical Density (OD) [4]: 1.01 OD
koff [5]: 0.00658 s⁻¹
Fluorescence Intensity Geomean (normalized to background) [6]: 12.9 fold over background
Optical Density (OD) [7]: 0.59 OD
Optical Density (OD) [8]: 1.44 OD
Fluorescence Intensity Geomean (normalized to background) [9]: 10.1 fold over background
Fluorescence Intensity Geomean (normalized to background) [10]: 7 fold over background
Optical Density (OD) [11]: 1.35 OD
Fluorescence Intensity Geomean (normalized to background) [12]: 19.6 fold over background
Fluorescence Intensity Geomean (normalized to background) [13]: 14.4 fold over background
koff [14]: 0.000729 s⁻¹
Optical Density (OD) [15]: 0.49 OD
Fluorescence Intensity Geomean (normalized to background) [16]: 6.9 fold over background
Optical Density (OD) [17]: 0.57 OD
kon [18]: 1.86e+06 M⁻¹ s⁻¹
Fluorescence Intensity Geomean (normalized to background) [19]: 10.2 fold over background
Fluorescence Intensity Geomean (normalized to background) [20]: 8.5 fold over background
kon [21]: 514000 M⁻¹ s⁻¹
Optical Density (OD) [22]: 0.7 OD
Kd [23]: 0.392 nM
Fluorescence Intensity Geomean (normalized to background) [24]: 15 fold over background
Optical Density (OD) [25]: 1.3 OD
binding result [26]: no binding
binding result [27]: no binding
binding result [28]: no binding
Kd [29]: 12.8 nM
Fluorescence Intensity Geomean (normalized to background) [30]: 7.6 fold over background
Fluorescence Intensity Geomean (normalized to background) [31]: 7.5 fold over background
Optical Density (OD) [32]: 0.58 OD
